From the DeepSol protein solubility set

Assay: soluble on expression in E. coli; label from the status in PepcDB or PDB records

## MGHHHHHHSHMTLKSSGRISDVFLCRHEKIFHPNKGYIYVVKVMRENTHEATYIQRTFEEFQELHNKLRLLFPSSHLPSFPSRFVIGRSRGEAVAERRREELNGYIWHLIHAPPEVAECDLVYTFFHPLPRDEKAMGTSPAPKSSDGTWARPVGKVGGEVKLSISYKNNKLFIMVMHIRGLQLLQDGNDPDPYVKIYLLPDPQKTTKRKTKVARKTCNPTYNEMLVYDGIPKGDLQQRELQLSVLSEQGFWENVLLGEVNIRLRELDLAQEKTGWFALGSRSHGTL
  soluble on expression in E. coli: not soluble

## MSLKTITTFENKKVLVLGLARSGEAAARLLAKLGAIVTVNDGKPFDENPTAQSLLEEGIKVVCGSHPLELLDEDFCYMIKNPGIPYNNPMVKKALEKQIPVLTEVELAYLVSESQLIGITGSNGKTTTTTMIAEVLNAGGQRGLLAGNIGFPASEVVQAANDKDTLVMELSSFQLMGVKEFRPHIAVITNLMPTHLDYHGSFEDYVAAKWNIQNQMSSSDFLVLNFNQGISKELAKTTKATIVPFSTTEKVDGAYVQDKQLFYKGENIMSVDDIGVPGSHNVENALATIAVAKLAGISNQVIRETLSNFGGVKHRLQSLGKVHGISFYNDSKSTNILATQKALSGFDNTKVILIAGGLDRGNEFDELIPDITGLKHMVVLGESASRVKRAAQKAGVTYSDALDVRDAVHKAYEVAQQGDVILLSPANASWDMYKNFEVRGDEFIDTFESLRGEGHHHHHH
  soluble on expression in E. coli: soluble

## MAWPKVQPEVNIGVVGHVDHGKTTLVQAITGIWTSKHSEELKRGMTIKLGYAETNIGVCESCKKPEAYVTEPSCKSCGSDDEPKFLRRISFIDAPGHEVLMATMLSGAALMDGAILVVAANEPFPQPQTREHFVALGIIGVKNLIIVQNKVDVVSKEEALSQYRQIKQFTKGTWAENVPIIPVSALHKINIDSLIEGIEEYIKTPYRDLSQKPVMLVIRSFDVNKPGTQFNELKGGVIGGSIIQGLFKVDQEIKVLPGLRVEKQGKVSYEPIFTKISSIRFGDEEFKEAKPGGLVAIGTYLDPSLTKADNLLGSIITLADAEVPVLWNIRIKYNLLERVVGAKEMLKVDPIRAKETLMLSVGSSTTLGIVTSVKKDEIEVELRRPVAVWSNNIRTVISRQIAGRWRMIGWGLVEI
  soluble on expression in E. coli: soluble

## MVEYVNQAHEDITGIARDKSIGTNLRDLTFFRQHNALAEQTLAKIFRGDQAKGEVQFSRTDGSRYWLKYIVSQFITDRGNHYALVSGEENSDEHNYKAELEHHHHHH
  soluble on expression in E. coli: not soluble

## MLEDLKRQVLEANLALPKHNLVTLTWGNVSAVDRERGVFVIKPSGVDYSIMTADDMVVVSIETGEVVEGAKKPSSDTPTHRLLYQAFPSIGGIVHTHSRHATIWAQAGQSIPATGTTHADYFYGTIPCTRKMTDAEINGEYEWETGNVIVETFEKQGIDAAQMPGVLVHSHGPFAWGKNAEDAVHNAIVLEEVAYMGIFCRQLAPQLPDMQQTLLNKHYLRKHGAKAYYGQ
  soluble on expression in E. coli: soluble

## MGSDKIHHHHHHLANLGFDFSPDFRPLAARMRPRVLSEYIGQSHLLGEGKALRVALEANRAHSMLLWGPPGTGKTTLAELIAHYANAHVERISAVSSGVKDIRAAIEQAKAVAQSRGQRTLLFVDEVHRFNKSQQDAFLPYIEDGTVIFVGATTENPSFELNNALLSRARVYLIHKLTETEITEIIIQALEDTERGLGKRQLIIPPEVMAELTHVSDGDARKALNLIELMSDLVADGDAVNLEMLSQVVGHKAAGYDKNGDQFYDLISAVHKSIRGSAPDAALYWFCRILEGGGDPLYVARRLLAIASEDIGNADPVAMTVALNAWDCFHRVGPAEGERAIAQAVLYLASAPKSNAVYTAFSAARELAHATGHEAVPNHLRNAPTKLMKTLAVGEGYRYAHDEPNAYAAGECYLPPSLEGQQFYQPTERGFEKRIKEKLAQLNQLDGHSRVKRYD
  soluble on expression in E. coli: not soluble

## MSLAIWAAGDTAGVATVVRTLRSAPRPPGAAMVVAPDGSVSGSVSGGCVEGAVYELAAEVAQTGIPRLEHYGVSDDTAFAVGLTCGGIIDVFVEPVSRATFPELGELADDIGAQRPVAIATVIAHPDERRVGRRLVIRPDTKSPVTGSLGSARADAAVIDDARGLLAVGRSEILEYGPDGQRRGEGMEVFVSSHAPRPRMLVFGAIDFAAALARQGSFLGYRVTVCDARAVFATPARFPTADDVVVAWPHRYLAAQAEAGGIDERTVICVLTHDPKFDVPVLEVALRLGVGYVGAMGSRKTHDDRMDRLRAAGLTDAELSRLSSPIGLDLGARTPEETAVSIAADIIARRWGGGGRPLADIAGRIHHDAQVAGEFKDYLTRHEGHHHHHH
  soluble on expression in E. coli: soluble

## MKNIIACIDGSPTTFATCEASAWVASKINAPLILLHALDKTMRPVVSEFSGQIGLGSQEELLNELAELDEARSKVALKHGKKLLEEATEWVIKKGLTNVEQLQRHGSLLESLIDLENQLRVLVIGKLGEDQSSNKTIGSQLESIIRSIKSHTLVVTSPFSIPTSYLIAFDGSPTSEKLIEKAIKTPLLFGLDCHFVMVDDFAAKSAAFEKAAIKLKNAGLSVHEDILSGSVDEALLKYQKDHQIGMMVMGAYGHSTLRQFFLGSNTTKVLIKSEVPLLLIR
  soluble on expression in E. coli: not soluble

## MLRFRCILSTSRSIMSGVKEFDYLVIGGGSGGIASARRAREFGVSVGLIESGRLGGTCVNVGCVPKKVMYNCSLHAEFIRDHADYGFDVTLNKFDWKVIKKSRDEYIKRLNGLYESGLKGSSVEYIRGRATFAEDGTVEVNGAKYRGKNTLIAVGGKPTIPNIKGAEHGIDSDGFFDLEDLPSRTVVVGAGYIAVEIAGVLANLGSDTHLLIRYDKVLRTFDKMLSDELTADMDEETNPLHLHKNTQVTEVIKGDDGLLTIKTTTGVIEKVQTLIWAIGRDPLTKELNLERVGVKTDKSGHIIVDEYQNTSAPGILSVGDDTGKFLLTPVAIAAGRRLSHRLFNGETDNKLTYENIATVVFSHPLIGTVGLTEAEAVEKYGKDEVTLYKSRFNPMLFAVTKHKEKAAMKLVCVGKDEKVVGVHVFGVGSDEMLQGFAVAVTMGATKKQFDQTVAIHPTSAEELVTMRGGVKPE
  soluble on expression in E. coli: not soluble

## MGSDKIHHHHHHMEANSIDVNSILANKNLIIKFQPVVSVIKKSVIGLEAVCLGSSDDNGGIISTSKLFKTAEEQGVLIELDRLYREKAVKEFVKVYKRNKELLLFLDINISIIDKYVGSGIIMNLISDSGISTNNVVLQIIEGKMTNLEALKKFIYLYRSNGFLVALKDLGTGFANMDKISYVEPDIIKINSVLTKGIEVDYYRQEVFRSLVNLSKKIGALVVCEDIASEQETMMIMELGADMLEGSYFENDFDLGEKFLDASRKLIDATAVKYEKYTEEEVKAKEMIYSGYDFVINEALKELSSLTEDKFDDSINTVINKNSKLECVYVLNKEGIQVGSTATRFTDMVPQRALIFEPAQKGTNHSLKKYYYFLKTMSLNKYVTEPYISLATGNLCITISAVFKNLEGKEYILCVDFNPNYMSM
  soluble on expression in E. coli: not soluble

## MKRPDYRTLQALDAVIRERGFERAAQKLCITQSAVSQRIKQLENMFGQPLLVRTVPPRPTEQGQKLLALLRQVELLEEEWLGDEQTGSTPLLLSLAVNADSLATWLLPALAPVLADSPIRLNLQVEDETRTQERLRRGEVVGAVSIQHQALPSCLVDKLGALDYLFVSSKPFAEKYFPNGVTRSALLKAPVVAFDHLDDMHQAFLQQNFDLPPGSVPCHIVNSSEAFVQLARQGTTCCMIPHLQIEKELASGELIDLTPGLFQRRMLYWHRFAPESRMMRKVTDALLDYGHKVLRQD
  soluble on expression in E. coli: soluble

## QEAQANTESEKRRLDSVITHMSDGILATDRRGRVRIANDMALKMLGLAKEDVIGYYMLGVLNLENEFSLEEIQENSDSFLLDINEEEGIIARVNFSTIVQETGFVTGYIAVLHDVT
  soluble on expression in E. coli: not soluble

## MLAARGFFKSTRISNRFFAKKSVKNLTNDDVDVLTNPSDEYVDSFMKYHGNGRAVFKREDLAQWRDSFPDYKFKVISLKGAPRVIATAHLCTFRPIDPSINKSIMFMGFGWIDPGFRSPGTAKLQNDMCRVEMDREDDNIVSQINQPAKNFWHKLSKRKEFLDLGHKAGDVGYKTFYSAHDVVLPENLDLSGITVKNAREVPKRDIINYDQTIHPYHREKYIISHMYDRDGFGKVAYDEEGNVIGIGQAVIYENRKDCNLGPIYAENTRVAQAMFAEILKDIKASEKTVVSFEVRSGQLNKDSFCWLTPFLTHKPTRSHVCNLVYTDCVPENIDFSKVYSPTHAQLFMV
  soluble on expression in E. coli: not soluble

## MMSVEHSANSQKKVIVGMSGGVDSSVSAYLLKQQGYQVEGLFMKNWEEDDNEEYCTAAEDLADAQAVCDKLGIPLHTINFAAEYWDNVFEYFLAEYKAGRTPNPDILCNKEIKFKAFLEFADEVLDADYIAMGHYVRRTFPQNGEKPQMLRGLDGNKDQSYFLYTLSHEQVARTLFPVGELEKPEVRRIAEEQGLITAKKKDSTGICFIGERKFTDFLSRYLPAQPGKIETPEGKVIGEHQGLMYHTLGQRKGLHIGGMKESSEQPWYVADKDLKRNVLIAVQGADHPLLKSHGLVAAQLHWVDRTPITEPVRCSVKTRYRQSDIACTIIPLSDDRIKVMFDEPQVAVTPGQSAVFYQGEICLGGGIIEERI
  soluble on expression in E. coli: not soluble

## MAHHHHHHMVRPEYSSPPEFFYNEEEAKKYVRNSRIRDIQSQMTERAMELLLLPDSPCLLLDIGCGSGISGMTLNELDHFWIGIDISIHMLRLQNEAHLGGDMLLADMGKLMRFQPCIFDGVVSISALQWLCNWDKKDESPVSRISTFFKWLYNCLKRGARAVFQFYPDSPEQIKTLTNFAMKAGFGGGVVVDFPNSAKSKKYYLCLWAGSSLVATMPTALNDEEENIISHERRKFNKKTKKQIKKNKEWILKKKDQRRMKGLDVKRDSKYTGRKRKGRF
  soluble on expression in E. coli: not soluble

## SAQEKMELDLELPPGTGGSPAEGGGSGGGGGLRRSNSAPLIHGLSDTSPVFQAEAPSARRNSTTFPSRHGLLLPASPVRMHSSRLHQIKQEEGMDLINRETVHEREVQTAMQISHSWEESFSLSDNDVEKSASPKRIDFIPVSPAPSPTRGIGKQCFSPSLQSFVSSNGLPPSPIPSPTTRFTTRRSQSPINCIRPSVLGPLKRKCEMETEYQPKRFFQGITNMLSSDVAQLSDPGVCVSSDTLDGNSSSAGSSCNSPAKVSTTTDSPVSPAQAASPFIPLDELSSK
  soluble on expression in E. coli: soluble

## MSPTLQDARLLWDFLGQGRCHVPCELLVVCGSYDLRVCDHACELLERGLAERLLFTGNTGHWTRHLWVEPEAELFARHARARGVSDSLIVIEPRATNFAENIAFARELFPDLRRATFVTKPNSIRRVALTLPVRWPGLEGHVDAPDYAFPDGISNLVGVLGVIDEMVGDLDRIMRYPALGFQVACPIPAQVMDAWERLVARGFDRHLVNPPRLEHHHHHH
  soluble on expression in E. coli: soluble

## MGAPLADILHALVLKIEDQRLGTHASVLLLSEDGKRVLTGAAPHLPDSYNQVIHGVEIGPEVGSCGTAAYTGQRVIVEDIEHHPYWALYKSFALVHGLRACWSEPIKDTQGKVLGTFAMYYKEIKSPTVADLTLIAEAARLASLAIERSRSLEFQRLAVKILEHHHHHH
  soluble on expression in E. coli: soluble

## MSWTGRLQCTAAFRNGRTVILDSYNEGALKLMRPVYLNSTYPTLYLVHVGGGYVDGDSYDMEISLEPSARLMVTTQSAAKIYKTPSTPVRQYTRFSLGEQSVLEYFPDPTIAYEHARFVQETTVYITSSSTVVYGEIITPGWSESGELFRYDWIRSKLKVYQDEALVLFDHLYLDSRQHLTSMLQLGGYTHVGSLVALSPFITKEVLERFNQFMEEMPQEVRCGFSAAAVPGFSVRILAYETSAIEAIFQRVQQFIRQQCGEKTPVCWRKY
  soluble on expression in E. coli: not soluble

## MLIANEVYHALNLEEVWFLPNQIPPHKQGRDITSVESRLQMLELATEAEEHFSICLEELSRKGPSYTYDTMLQLTKKYPDVQFHFIIGGDMVEYLPKWYNIEALLDLVTFVGVARPGYKLRTPYPITTVEIPEFAVSSSLLRERYKEKKTCKYLLPEKVQVYIERNGLYES
  soluble on expression in E. coli: not soluble

## PRYTEVTEEQIIVKQIWGQLVFDRKEMEIVPIGKDDLKSSLRTFGNGGLFGYAGYFRNKKLGKYRMYVTRLKDLSLLTDRNGKKTVINLRQV
  soluble on expression in E. coli: not soluble
